Measurements reported in publication PMC10673843 (2023).

Target: CD44 (isoform 4), Fc-fused (human)
Assay: SPR; apparent KD, dimeric Fc-fused target

CD44 (isoform 4), Fc-fused (human), sequence (chain, as listed by the source): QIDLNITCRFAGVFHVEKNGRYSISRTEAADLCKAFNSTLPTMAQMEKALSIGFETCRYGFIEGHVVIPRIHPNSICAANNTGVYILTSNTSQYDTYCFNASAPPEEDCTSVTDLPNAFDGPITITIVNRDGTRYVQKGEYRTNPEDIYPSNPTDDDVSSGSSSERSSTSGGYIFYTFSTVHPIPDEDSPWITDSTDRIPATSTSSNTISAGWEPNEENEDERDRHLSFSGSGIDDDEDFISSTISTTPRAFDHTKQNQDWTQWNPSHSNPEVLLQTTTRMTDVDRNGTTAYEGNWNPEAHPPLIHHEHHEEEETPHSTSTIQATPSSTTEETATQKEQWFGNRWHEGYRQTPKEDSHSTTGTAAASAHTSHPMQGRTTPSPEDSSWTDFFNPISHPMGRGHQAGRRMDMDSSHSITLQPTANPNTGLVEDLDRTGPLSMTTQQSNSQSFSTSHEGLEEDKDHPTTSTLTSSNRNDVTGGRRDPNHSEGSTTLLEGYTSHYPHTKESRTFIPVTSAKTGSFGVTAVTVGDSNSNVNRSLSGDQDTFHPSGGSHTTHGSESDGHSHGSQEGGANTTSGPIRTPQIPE

B1: BIWA4 (bivatuzumab), as human IgG4 (antibody, V domains shown)
VH: EVQLVESGGGLVKPGGSLRLSCAASGFTFSSYDMSWVRQAPGKGLEWVSTISSGGSYTYYLDSIKGRFTISRDNAKNSLYLQMNSLRAEDTAVYYCARQGLDYWGRGTLVTVSS
VL: EIVLTQSPATLSLSPGERATLSCSASSSINYIYWYQQKPGQAPRLLIYLTSNLASGVPARFSGSGSGTDFTLTISSLEPEDFAVYYCLQWSSNPLTFGGGTKVEIK
Kd: 48 nM
